Paper PMC11021482

Molecular target: T1, CXCR2 of mouse DRG neurons (mouse (endogenous in DRG)) (UniProt P35343)
T1 sequence: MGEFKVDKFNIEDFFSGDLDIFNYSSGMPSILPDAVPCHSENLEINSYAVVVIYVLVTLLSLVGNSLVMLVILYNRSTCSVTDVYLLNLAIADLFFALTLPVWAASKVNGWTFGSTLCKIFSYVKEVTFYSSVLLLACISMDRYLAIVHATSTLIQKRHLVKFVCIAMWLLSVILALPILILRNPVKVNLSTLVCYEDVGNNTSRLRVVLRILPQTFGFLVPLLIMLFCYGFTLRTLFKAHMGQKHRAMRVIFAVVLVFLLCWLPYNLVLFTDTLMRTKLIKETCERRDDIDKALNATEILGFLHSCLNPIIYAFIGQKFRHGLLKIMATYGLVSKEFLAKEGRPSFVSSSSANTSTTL

EC50 of the Ca^2+ response of cultured mouse DRG neurons to CXCL5 (Fura-2 imaging, dose-response): 24.8 nM
B1: recombinant mouse CXCL5 (ligand)
chain: APSSVIAATELRCVCLTVTPKINPKLIANLEVIPAGPQCPTVEVIAKLKNQKEVCLDPEAPVIKKIIQKILGSDKKKAKRNALAVERTASVQ
